B1: 386A03 (designed binder)
chain: VSDVPRDLEVVAATPTSLLISWSARLKVARYYRITYGETGGNSPVQEFTVPKNVYTATISGLKPGVDYTITVYAVTNLRDYGPISINYRTHHHHHH
notes: FG loop optimized derivative of 338A06
B2: 387B01 (designed binder)
chain: B1 chain with N77S
notes: as for B1
B3: 386F10 (designed binder)
chain: B1 chain with N77L
notes: as for B1
B4: 387C02 (designed binder)
chain: B1 chain with N77G, L78V, D80N
notes: as for B1
B5: 386A05 (designed binder)
chain: B1 chain with N77E, L78R, G82R
notes: as for B1
B6: 385D05 (designed binder)
chain: B1 chain with N77R, L78E, G82R
notes: as for B1
B7: 386A07 (designed binder)
chain: B1 chain with N77L, L78V, D80N
notes: as for B1
B8: 385E04 (designed binder)
chain: B1 chain with N77E, D80N
notes: as for B1
B9: 385E01 (designed binder)
chain: B1 chain with N77A, L78V, G82R
notes: as for B1
B10: 387A09 (designed binder)
chain: B1 chain with N77M, L78S
notes: as for B1
B11: 339A01 (designed binder)
chain: B1 chain with A24T, R25A, A29Q, N53H, V54S, Y55H, N77K, L78M, G82R
notes: Optimized derivative of 218C04
B12: 354F11 (designed binder)
chain: VSDVPRDLEVVAATPTSLLISWGKHLVVQRYYRITYGETGGNSPVQEFTVPRGHYTATISGLKPGVDYTITVYAVTKMRDYRPISINYRTHHHHHH
notes: as for B11
B13: 354G09 (designed binder)
chain: B12 chain with G23P, K24Q, V27R, H54S, Y55D
notes: as for B11
B14: 354F06 (designed binder)
chain: VSDVPRDLEVVAATPTSLLISWTTNLQVSRYYRITYGETGGNSPVQEFTVPKANTTATISGLKPGVDYTITVYAVTVSKGNRSYGPISINYRTHHHHHH
notes: as for B11
B15: 354G02 (designed binder)
chain: VSDVPRDLEVVAATPTSLLISWAEHLQVSRYYRITYGETGGNSPVQEFTVPRGVYTATISGLKPGVDYTITVYAVTPSNIIGRHYGPISINYRTHHHHHH
notes: as for B11
B16: 353F10 (designed binder)
chain: VSDVPRDLEVVAATPTSLLISWPTHYKVARYYRITYGETGGNSPVQEFTVPKHTYTATISGLKPGVDYTITVYAVTTTKGLRHYGPISINYRTHHHHHH
notes: as for B11
B17: 354A10 (designed binder)
chain: VSDVPRDLEVVAATPTSLLISWSNRLVVKRYYRITYGETGGNSPVQEFTVPHQMKTATISGLKPGVDYTITVYAVTPGGYSGRNYGPISINYRTHHHHHH
notes: as for B11
B18: 338A05 (designed binder)
chain: B15 chain with A23S, E24D, H25S, Q27K, R52K, G53Q, V54Y, Y55H
notes: as for B11
B19: 385F08 (designed binder)
chain: B1 chain with N77S, G82A
notes: as for B1
B20: 385H06 (designed binder)
chain: B1 chain with N77Q, G82S
notes: as for B1
B21: 387A03 (designed binder)
chain: B1 chain with N77S, L78Y, G82W
notes: as for B1
B22: 385B04 (designed binder)
chain: B1 chain with N77A, L78Y, G82Q
notes: as for B1
B23: 386F11 (designed binder)
chain: B1 chain with N77L, L78T, G82K
notes: as for B1
B24: 386H05 (designed binder)
chain: B1 chain with N77V, L78V, G82R
notes: as for B1
B25: 385A09 (designed binder)
chain: B1 chain with N77R, L78I
notes: as for B1
B26: 386F01 (designed binder)
chain: B1 chain with N77T, L78I, G82R
notes: as for B1

Substitutions are numbered along the chain they refer to. Bounds are passed on as bounds.

The first experiment addresses T1, IGF-IR-Fc (human, UniProt P08069 31-932).
T1 construct: range 1-932; Made in house by transient transfection, captured on Protein A on CM5 chips for kinetic analysis; also called human IGF-IR-Fc fusion protein; recombinant, immobilized IGF-IR (BIAcore); not shown: hinge and constant regions of human IgG1
The experiment in a line: SPR (BIAcore); IGF-IR-Fc captured on Protein A, clone in solution. How it is done: BIAcore analysis was performed using recombinant, immobilized IGF-IR and solution-phase clones in order to determine binding kinetics and binding affinities.
(§1) The binding kinetics of fibronectin-based scaffold proteins binding proteins to the target was measured using BIAcore 2000 or 3000 biosensors (Pharmacia Biosensor). A capture assay was developed utilizing an IGF-IR-Fc fusion. A similar reagent had been described by Forbes et al. (Forbes et al. 2002, European J. Biochemistry, 269, 961-968). The extracellular domain of human IGF-IR (aa 1-932) was cloned into a mammalian expression vector containing the hinge and constant regions of human IgG1. Transient transfection of the plasmid produced a fusion protein, IGF-IR-Fc which was subsequently purified by Protein A chromatography and captured on Protein A immobilized on Biasensor CM5 chips by amine coupling. The kinetic analysis involved the capture of IGF-IR-Fc on Protein A followed by injection of the fibronectin-based scaffold protein in solution and regeneration of the Protein A surface by glycine pH 2.0. Sensorgrams were obtained at each concentration and were evaluated using a program Biaevaluation, BIA Evaluation 2.0 (BIAcore), to determine the rate constants kₐ (kₒₙ) and kd (koff) The dissociation constant, KD was calculated from the ratio of rate constants koff/kₒₙ. Typically, a concentration series (2 uM to 0 uM) of purified fibronectin-based scaffold protein was evaluated for binding to protein A captured human IGF-IR-Fc fusion protein.
The term Kd denotes a measure of binding affinity in units of concentration. Read a high Kd as lower affinity. The koff is a measure of how fast the partners let go of each other. A high value points to fast dissociation. By kon is commonly meant the rate constant with which the complex forms. Lower therefore signals slow association. As to B1, binding was put at a Kd of 88 pM, the koff stood at 0.00046 s⁻¹ and the on-rate constant (kon) is 5.2e+06 M⁻¹ s⁻¹.

Molecule B2 showed a Kd of 67 pM, a dissociation rate constant (koff) of 0.00044 s⁻¹ and a kon of 6.5e+06 M⁻¹ s⁻¹.

The molecule B3 yielded a dissociation constant (Kd) of 123 pM, a koff of 0.00023 s⁻¹ and an association rate constant (kon) of 1.9e+06 M⁻¹ s⁻¹.

A further experiment addresses T2, recombinant human IGF-IR (human, UniProt P08069 31-932).
T2 construct: Bought (R&D Systems); also called insulin-like growth factor-I receptor; IGF-1R
The experiment in a line: direct binding ELISA on coated IGF-IR. (In an ELISA, binding on a coated surface is turned into a signal by an enzyme label.)
For the molecule B4, the binding result is “binds”.

With B5, the binding result is recorded as “binds”.

As for B6, the binding result is given as “binds”.

For the molecule B7, the binding result is listed as “binds”.

Regarding B8, the binding result is given as “binds”.

With B9, the binding result is recorded as “binds”.

Consider B10, for which the binding result is given as “binds”.

Another experiment concerns the target T3, recombinant human insulin receptor (human, UniProt P06213-2 28-944, limits assumed).
T3 construct: Amine-coupled to a CM5 chip (8300 RU); also called IR
The experiment in a line: SPR (BIAcore), IR amine-coupled to chip. As for the experimental part:
(§2) In brief, 60 ug/mL of IR diluted in acetate 4.5 was coupled/immobilized to a level of 8300 RU and 11.9 ug/mL of VEGF-R2-Fc diluted in acetate 5.0 was immobilized to a level of 9700 RU on flow cells 2 and 3. A blank reference surface was prepared on FC 1. […] Fibronectin-based scaffold proteins were diluted to 10 uM in HBS-EP (10 mM Hepes 150 mM NaCl 3 mM EDTA 0.05% Surfactant P20) and injected at 20 uL/min for 3 minutes over the flow cells at 25 C and dissociation was observed over 10 mins.
On the technique in general: Surface plasmon resonance follows binding to a sensor surface in real time, without labels.
Consider B2, for which the binding result is “no binding (tested: 10 µM)”.

A further experiment has as its target T2, recombinant human IGF-IR. In words: competitive ELISA: plate coated with 30 nM IGF-IR, clone bound first, then 10 nM biotinylated IGF-I as the blocked ligand, streptavidin-HRP/TMB, OD450. As for the experimental part:
MaxiSorp™ plates (Nunc International, Rochester, N.Y.) were coated with 30 nM IGF-IR in PBS at 4° C. overnight followed by blocking in OptEIA buffer (BD biosciences, San Diego, Calif.) for 3 hours at room temperature. Purified fibronectin-based scaffold proteins in OptEIA buffer were bound to each well for 1 hour at room temperature at concentrations ranging from 50 pM to 1 μM. […] The excess ligand was removed by washing with PBST and bound ligand was detected with streptavidin-HRP (Pierce, Rockford, Ill.) using TMB detection reagents (BD biosciences) according to the manufacturer's instructions
For B11, the “IC50 (read off the curve)” value is ~1000 pM.

Regarding B12, the binding result is recorded as “binds”.

Consider B13, for which the binding result is given as “binds”.

Consider B14, for which the binding result is “binds”.

Regarding B15, the binding result is on record as “binds”.

On to B16, for which the “IC50 (read off the curve)” value was ~1000 pM.

The next experiment concerns the target T1, IGF-IR-Fc. In words: SPR (BIAcore); IGF-IR-Fc captured on Protein A, clone in solution. This is another data set of the same source. As for the experimental part: One liter E. coli growths of selected optimized clones were prepared and the proteins were purified. Surface plasmon resonance (BIAcore) analysis was performed using recombinant, immobilized IGF-IR and solution-phase clones in order to determine binding kinetics and binding affinities.
as §1
In turn, B11 had a Kd of 565 pM, a dissociation rate constant (koff) of 0.00067 s⁻¹ and an on-rate (kon) of 1.2e+06 M⁻¹ s⁻¹.

B17: binding was characterised by a dissociation constant (Kd) of 158 pM, the off-rate (koff) was 0.00018 s⁻¹ and the kon is 1.1e+06 M⁻¹ s⁻¹.

Molecule B18 came in with an equilibrium dissociation constant (Kd) of 261 pM, a koff of 0.00033 s⁻¹ and an association rate constant (kon) of 1.3e+06 M⁻¹ s⁻¹.

On to B16, for which binding was put at a Kd of 56 pM, the koff worked out at 0.00021 s⁻¹ and the association rate constant (kon) came out at 3.7e+06 M⁻¹ s⁻¹.

For the next experiment, the target named is T3, recombinant human insulin receptor. In words: SPR (BIAcore); IR amine-coupled to chip, clone at 10 µM, signal as % of insulin signal. As for the experimental part: One liter E. coli growths of selected optimized clones were prepared and the proteins were purified.
as §2
B11: the “% IR Binding at 10 µM” value was > 100%.

As to B17, the “% IR Binding at 10 µM” value was 1%.

B18: the “% IR Binding at 10 µM” value worked out at 45%.

In the case of B16, the “% IR Binding at 10 µM” value amounted to 1%.

Another experiment concerns the target T2, recombinant human IGF-IR. In words: direct binding ELISA: plate coated with 10 nM IGF-IR, His-tagged clone detected with His-HRP probe, TMB, OD450. How it is done:
MaxiSorp™ plates (Nunc International, Rochester, N.Y.) were coated with 10 nM IGF-IR in PBS at 4° C. overnight followed by blocking in PBS-casein buffer (Pierce) for 3 hours at room temperature. Purified fibronectin-based scaffold proteins in casein buffer were bound to each well for 1 hour at room temperature at a concentration of 5 nM. The plate was washed with PBST and 100 μl of a 1:4000 dilution of His-HRP probe (Pierce) was added to each well with incubation for 15 min at room temperature. The wells were washed 5 times with PBST and the bound HRP was detected with TMB detection reagents (BD biosciences) according to the manufacturer's instructions.
A word on the EC50 (read off the curve): it is the concentration giving half of the maximal effect. For the molecule B19, the concentration for a half-maximal effect (EC50 (read off the curve)) was ~900 pM.

For the molecule B2, the “EC50 (read off the curve)” value is ~1000 pM.

As to B20, the binding result was “binds”.

In the case of B21, the binding result is listed as “binds”.

In the case of B22, the binding result is on record as “binds”.

Take B23: the binding result was “binds”.

As to B24, the binding result was “binds”.

In the case of B25, the binding result was “binds”.

For the molecule B26, the binding result is listed as “binds”.

Source of the values: patent publication US20130310317A1 (Bristol-Myers Squibb, published 2013).
